Columns and labels:
[1] = tested on: AncSZ; assay: phosphorylation enrichment, bacterial display (enrichment ratio); higher = better substrate or ligand; peptides without Tyr show the background
[2] = target: EPHB1 (UniProt P54762); assay: as above
[3] = target: EPHB2 (UniProt P29323); assay: as above
[4] = target: FGFR1 (UniProt P11362); assay: as above
[5] = target: FGFR3 (UniProt P22607); assay: as above
[6] = tested on: Fer (mouse); assay: as above
[7] = target: Fes (UniProt P07332); assay: as above
[8] = target: Fyn (UniProt P06241); assay: as above
[9] = target: Hck (UniProt P08631); assay: as above
[10] = target: Jak2 (UniProt O60674); assay: as above
[11] = target: MERTK (UniProt Q12866); assay: as above
[12] = tested on: c-Abl (mouse); assay: as above
[13] = tested on: c-Src; assay: as above
[14] = target: Grb2 SH2 (UniProt P62993); assay: SH2 binding enrichment of the phosphorylated peptide, bacterial display (enrichment ratio); higher = better substrate or ligand; peptides without Tyr show the background
[15] = target: SHP2-C SH2; assay: as above
[16] = target: c-Src SH2; assay: as above
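For SH2 binding enrichment of the phosphorylated peptide, bacterial display in this document: peptide library displayed on the E. coli surface as eCPX fusions, selected cells deep-sequenced, score is each peptide's frequency after selection divided by its frequency in the input.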
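For phosphorylation enrichment, bacterial display in this document: 11-residue human phosphosite peptides and single-mutation variants displayed on the E. coli surface, counted by deep sequencing, each peptide's frequency after selection divided by its frequency in the unselected input library; frequency after pTyr selection over input frequency; kinase dosed for 20-30% of maximal phosphorylation in three min.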

Hck, sequence (P08631 whole entry, looked up): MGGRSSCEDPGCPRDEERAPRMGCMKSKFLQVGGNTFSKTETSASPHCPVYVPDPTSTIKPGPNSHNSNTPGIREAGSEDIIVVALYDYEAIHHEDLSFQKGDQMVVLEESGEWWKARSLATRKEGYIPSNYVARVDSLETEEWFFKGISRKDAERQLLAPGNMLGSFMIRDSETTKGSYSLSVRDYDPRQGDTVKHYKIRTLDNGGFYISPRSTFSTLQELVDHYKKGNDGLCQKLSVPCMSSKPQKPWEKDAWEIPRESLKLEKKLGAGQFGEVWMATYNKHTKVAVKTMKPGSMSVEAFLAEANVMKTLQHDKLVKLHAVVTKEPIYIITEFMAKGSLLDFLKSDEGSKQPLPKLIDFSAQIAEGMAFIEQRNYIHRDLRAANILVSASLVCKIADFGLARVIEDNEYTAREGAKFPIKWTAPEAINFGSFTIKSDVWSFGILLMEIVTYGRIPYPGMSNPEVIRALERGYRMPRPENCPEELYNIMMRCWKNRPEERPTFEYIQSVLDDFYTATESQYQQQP
FGFR1, sequence (P11362 whole entry, looked up): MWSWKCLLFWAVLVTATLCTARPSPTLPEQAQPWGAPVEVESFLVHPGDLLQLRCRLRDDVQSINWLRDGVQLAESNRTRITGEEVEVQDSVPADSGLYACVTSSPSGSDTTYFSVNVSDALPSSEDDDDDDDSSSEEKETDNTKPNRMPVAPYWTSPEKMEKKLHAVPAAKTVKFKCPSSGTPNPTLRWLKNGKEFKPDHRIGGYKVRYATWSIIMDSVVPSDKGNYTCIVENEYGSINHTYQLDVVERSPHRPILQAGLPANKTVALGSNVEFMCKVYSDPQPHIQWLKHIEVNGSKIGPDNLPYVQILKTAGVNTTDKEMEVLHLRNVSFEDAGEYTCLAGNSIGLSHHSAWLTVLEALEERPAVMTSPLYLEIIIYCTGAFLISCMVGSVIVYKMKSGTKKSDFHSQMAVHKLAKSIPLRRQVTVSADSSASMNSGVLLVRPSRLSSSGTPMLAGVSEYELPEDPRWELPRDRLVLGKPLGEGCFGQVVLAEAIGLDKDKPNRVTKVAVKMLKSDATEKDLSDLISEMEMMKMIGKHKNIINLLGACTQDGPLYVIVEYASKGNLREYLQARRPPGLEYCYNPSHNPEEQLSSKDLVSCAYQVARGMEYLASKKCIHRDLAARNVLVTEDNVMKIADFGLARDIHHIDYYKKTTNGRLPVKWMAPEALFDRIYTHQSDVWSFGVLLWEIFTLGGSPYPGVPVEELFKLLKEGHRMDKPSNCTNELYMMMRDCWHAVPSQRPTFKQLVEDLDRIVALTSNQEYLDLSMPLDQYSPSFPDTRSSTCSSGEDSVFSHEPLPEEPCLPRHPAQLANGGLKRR
Fyn, sequence (P06241 whole entry, looked up): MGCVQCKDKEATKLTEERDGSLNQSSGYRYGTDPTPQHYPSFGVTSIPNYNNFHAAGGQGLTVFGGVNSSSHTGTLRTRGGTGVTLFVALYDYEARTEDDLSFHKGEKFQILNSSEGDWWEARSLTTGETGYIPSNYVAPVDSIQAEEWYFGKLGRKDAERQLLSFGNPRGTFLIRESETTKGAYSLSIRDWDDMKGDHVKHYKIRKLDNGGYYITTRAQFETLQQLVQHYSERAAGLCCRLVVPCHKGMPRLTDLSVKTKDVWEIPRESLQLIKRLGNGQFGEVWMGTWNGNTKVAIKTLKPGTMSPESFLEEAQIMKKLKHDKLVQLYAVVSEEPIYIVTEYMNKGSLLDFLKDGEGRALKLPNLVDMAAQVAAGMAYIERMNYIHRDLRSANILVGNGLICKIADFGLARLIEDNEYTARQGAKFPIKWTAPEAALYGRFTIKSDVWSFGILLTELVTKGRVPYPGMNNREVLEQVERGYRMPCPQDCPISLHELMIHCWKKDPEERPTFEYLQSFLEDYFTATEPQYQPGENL
MERTK, sequence (Q12866 whole entry, looked up): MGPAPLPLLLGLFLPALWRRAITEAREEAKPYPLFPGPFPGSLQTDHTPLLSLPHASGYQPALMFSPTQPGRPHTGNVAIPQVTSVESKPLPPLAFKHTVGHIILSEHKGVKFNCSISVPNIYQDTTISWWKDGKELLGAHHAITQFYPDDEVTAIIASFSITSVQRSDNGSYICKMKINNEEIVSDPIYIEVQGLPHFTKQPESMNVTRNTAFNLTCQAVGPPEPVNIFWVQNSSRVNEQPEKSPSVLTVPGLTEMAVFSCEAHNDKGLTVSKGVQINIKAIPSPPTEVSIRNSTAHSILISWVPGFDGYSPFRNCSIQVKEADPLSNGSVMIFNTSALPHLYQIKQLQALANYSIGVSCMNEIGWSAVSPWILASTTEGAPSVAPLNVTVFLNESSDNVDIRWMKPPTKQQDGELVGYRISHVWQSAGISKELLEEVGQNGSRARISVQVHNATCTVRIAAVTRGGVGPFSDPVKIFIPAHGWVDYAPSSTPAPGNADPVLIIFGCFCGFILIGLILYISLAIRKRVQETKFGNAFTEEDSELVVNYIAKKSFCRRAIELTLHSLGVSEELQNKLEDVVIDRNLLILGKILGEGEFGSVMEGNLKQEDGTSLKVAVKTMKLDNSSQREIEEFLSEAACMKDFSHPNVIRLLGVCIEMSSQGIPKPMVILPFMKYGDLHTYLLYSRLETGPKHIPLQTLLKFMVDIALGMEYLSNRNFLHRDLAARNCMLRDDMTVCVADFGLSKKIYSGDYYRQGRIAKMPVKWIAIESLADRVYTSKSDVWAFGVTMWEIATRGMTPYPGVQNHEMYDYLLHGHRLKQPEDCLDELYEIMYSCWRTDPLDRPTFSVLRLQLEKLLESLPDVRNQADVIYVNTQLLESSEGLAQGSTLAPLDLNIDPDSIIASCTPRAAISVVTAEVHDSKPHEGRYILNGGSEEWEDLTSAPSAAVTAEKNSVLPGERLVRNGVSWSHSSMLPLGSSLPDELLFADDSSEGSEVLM
EPHB2, sequence (P29323 whole entry, looked up): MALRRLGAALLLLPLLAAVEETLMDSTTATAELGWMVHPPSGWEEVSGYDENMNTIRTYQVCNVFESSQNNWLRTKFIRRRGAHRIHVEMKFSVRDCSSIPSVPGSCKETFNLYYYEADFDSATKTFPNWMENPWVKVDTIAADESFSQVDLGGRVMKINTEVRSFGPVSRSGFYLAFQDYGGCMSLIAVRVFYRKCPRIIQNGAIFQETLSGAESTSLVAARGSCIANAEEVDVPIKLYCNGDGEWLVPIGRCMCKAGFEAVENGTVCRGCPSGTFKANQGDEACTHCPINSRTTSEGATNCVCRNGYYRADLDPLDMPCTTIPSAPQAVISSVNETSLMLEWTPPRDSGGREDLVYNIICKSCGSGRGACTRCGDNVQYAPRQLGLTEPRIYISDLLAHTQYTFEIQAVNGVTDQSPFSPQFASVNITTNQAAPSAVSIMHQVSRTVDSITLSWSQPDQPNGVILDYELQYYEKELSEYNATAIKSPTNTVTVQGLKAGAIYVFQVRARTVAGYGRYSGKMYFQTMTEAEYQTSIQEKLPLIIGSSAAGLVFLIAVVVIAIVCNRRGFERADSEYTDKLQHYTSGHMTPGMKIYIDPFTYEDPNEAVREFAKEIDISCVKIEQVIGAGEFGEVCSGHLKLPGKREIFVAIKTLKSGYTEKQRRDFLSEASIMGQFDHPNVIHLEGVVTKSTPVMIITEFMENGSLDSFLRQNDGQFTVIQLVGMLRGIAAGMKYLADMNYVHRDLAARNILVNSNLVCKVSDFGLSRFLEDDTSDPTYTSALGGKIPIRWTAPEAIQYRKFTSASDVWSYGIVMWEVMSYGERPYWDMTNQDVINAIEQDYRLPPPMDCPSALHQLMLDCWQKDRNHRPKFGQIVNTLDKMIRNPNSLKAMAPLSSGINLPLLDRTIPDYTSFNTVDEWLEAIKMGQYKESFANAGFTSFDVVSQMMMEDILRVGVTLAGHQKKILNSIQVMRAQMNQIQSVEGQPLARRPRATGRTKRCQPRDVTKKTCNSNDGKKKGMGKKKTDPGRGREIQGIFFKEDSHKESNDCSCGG
Fes, sequence (P07332 whole entry, looked up): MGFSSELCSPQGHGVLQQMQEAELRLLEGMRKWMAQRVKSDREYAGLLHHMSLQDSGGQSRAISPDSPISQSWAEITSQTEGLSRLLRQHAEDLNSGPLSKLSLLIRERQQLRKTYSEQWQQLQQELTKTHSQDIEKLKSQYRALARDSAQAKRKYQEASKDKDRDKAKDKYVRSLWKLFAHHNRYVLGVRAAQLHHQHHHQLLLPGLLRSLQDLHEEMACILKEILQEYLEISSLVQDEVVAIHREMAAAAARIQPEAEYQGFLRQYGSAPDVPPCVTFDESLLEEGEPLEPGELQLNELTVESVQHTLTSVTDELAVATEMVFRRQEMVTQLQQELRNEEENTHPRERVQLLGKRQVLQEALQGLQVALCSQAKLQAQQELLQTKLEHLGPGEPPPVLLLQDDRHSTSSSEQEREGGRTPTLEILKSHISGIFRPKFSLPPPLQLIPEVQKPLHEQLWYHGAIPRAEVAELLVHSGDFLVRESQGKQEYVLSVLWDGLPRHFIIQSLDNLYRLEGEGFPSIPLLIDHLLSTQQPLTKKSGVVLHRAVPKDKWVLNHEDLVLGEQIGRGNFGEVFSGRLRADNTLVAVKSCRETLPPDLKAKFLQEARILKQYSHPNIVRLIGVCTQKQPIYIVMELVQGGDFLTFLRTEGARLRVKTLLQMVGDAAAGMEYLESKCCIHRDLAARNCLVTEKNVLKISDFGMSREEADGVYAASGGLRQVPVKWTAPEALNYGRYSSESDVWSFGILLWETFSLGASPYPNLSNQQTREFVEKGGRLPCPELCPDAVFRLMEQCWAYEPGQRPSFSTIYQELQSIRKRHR
Grb2 SH2, sequence (P62993 whole entry, looked up): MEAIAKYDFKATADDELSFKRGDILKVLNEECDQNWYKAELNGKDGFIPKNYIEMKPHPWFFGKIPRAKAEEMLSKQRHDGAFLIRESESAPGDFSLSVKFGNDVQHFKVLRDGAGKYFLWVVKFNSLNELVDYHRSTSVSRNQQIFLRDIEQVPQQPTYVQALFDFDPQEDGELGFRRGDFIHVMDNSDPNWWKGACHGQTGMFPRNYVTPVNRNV

KVPCHYDDPGK [FOXG1_Y246_R244C] gave a phosphorylation enrichment [1] of 0.827, a phosphorylation enrichment [2] of 0.469 and a phosphorylation enrichment [3] of 0.527. For the same sequence, the phosphorylation enrichment [4] was 0.412, the phosphorylation enrichment [5] was 0.598 and the phosphorylation enrichment [6] was 0.86. The phosphorylation enrichment [7] was 0.943, the phosphorylation enrichment [8] was 0.437 and the phosphorylation enrichment [9] was 0.793. It also gave a phosphorylation enrichment [10] of 0.717, a phosphorylation enrichment [11] of 0.412 and a phosphorylation enrichment [12] of 0.707. For the same sequence, the phosphorylation enrichment [13] was 0.443, the SH2 binding enrichment [14] was 0.906 and the SH2 binding enrichment [15] was 0.838. For the same sequence, the SH2 binding enrichment [16] was 2.01.
With KVQVSYKGDTK [HSPA1A_Y107_E110D] the phosphorylation enrichment [1] was 0.491, the phosphorylation enrichment [2] was 0.299 and the phosphorylation enrichment [3] was 0.36. For the same sequence, the phosphorylation enrichment [4] was 0.425, the phosphorylation enrichment [5] was 0.378 and the phosphorylation enrichment [6] was 0.328. For the same sequence, the phosphorylation enrichment [7] was 0.598, the phosphorylation enrichment [8] was 0.372 and the phosphorylation enrichment [9] was 0.392. It also gave a phosphorylation enrichment [10] of 0.5, a phosphorylation enrichment [11] of 0.414 and a phosphorylation enrichment [12] of 0.615. It also gave a phosphorylation enrichment [13] of 0.473, an SH2 binding enrichment [14] of 0.949 and an SH2 binding enrichment [15] of 0.676. For the same sequence, the SH2 binding enrichment [16] was 0.525.
Sequence KVWGIYDCQQP [CYP3A7_Y75] has a phosphorylation enrichment [1] of 1.56, a phosphorylation enrichment [2] of 6.6 and a phosphorylation enrichment [3] of 2.3. It also gave a phosphorylation enrichment [4] of 0.687, a phosphorylation enrichment [5] of 0.772 and a phosphorylation enrichment [6] of 2.48. For the same sequence, the phosphorylation enrichment [7] was 1.61, the phosphorylation enrichment [8] was 7.28 and the phosphorylation enrichment [9] was 6.28. The phosphorylation enrichment [10] was 1.14, the phosphorylation enrichment [11] was 4.76 and the phosphorylation enrichment [12] was 0.998. The phosphorylation enrichment [13] was 4.49, the SH2 binding enrichment [14] was 0.78 and the SH2 binding enrichment [15] was 0.761. The SH2 binding enrichment [16] was 0.472.
In the case of KWHREYNSKFV [RICTOR_Y835_YF], the phosphorylation enrichment [1] was 0.556, the phosphorylation enrichment [2] was 0.35 and the phosphorylation enrichment [3] was 0.391. The phosphorylation enrichment [4] was 0.371, the phosphorylation enrichment [5] was 0.49 and the phosphorylation enrichment [6] was 0.422. The phosphorylation enrichment [7] was 0.623, the phosphorylation enrichment [8] was 0.364 and the phosphorylation enrichment [9] was 0.371. For the same sequence, the phosphorylation enrichment [10] was 0.581, the phosphorylation enrichment [11] was 0.37 and the phosphorylation enrichment [12] was 0.555. For the same sequence, the phosphorylation enrichment [13] was 0.334, the SH2 binding enrichment [14] was 1.11 and the SH2 binding enrichment [15] was 1.18. For the same sequence, the SH2 binding enrichment [16] was 1.19.
KWRGQYDVANK [BTK_Y425_I429N] gave a phosphorylation enrichment [1] of 0.533, a phosphorylation enrichment [2] of 0.381 and a phosphorylation enrichment [3] of 0.396. It also gave a phosphorylation enrichment [4] of 0.439, a phosphorylation enrichment [5] of 0.57 and a phosphorylation enrichment [6] of 0.446. For the same sequence, the phosphorylation enrichment [7] was 0.705, the phosphorylation enrichment [8] was 0.359 and the phosphorylation enrichment [9] was 0.445. The phosphorylation enrichment [10] was 0.6, the phosphorylation enrichment [11] was 0.387 and the phosphorylation enrichment [12] was 0.594. It also gave a phosphorylation enrichment [13] of 0.376, an SH2 binding enrichment [14] of 1.08 and an SH2 binding enrichment [15] of 0.957. For the same sequence, the SH2 binding enrichment [16] was 1.2.
For KYLENYYDLKK [MMP3_Y41], the phosphorylation enrichment [1] was 0.922, the phosphorylation enrichment [2] was 7.15 and the phosphorylation enrichment [3] was 2.77. For the same sequence, the phosphorylation enrichment [4] was 7.68, the phosphorylation enrichment [5] was 4.8 and the phosphorylation enrichment [6] was 0.513. The phosphorylation enrichment [7] was 0.99, the phosphorylation enrichment [8] was 2.24 and the phosphorylation enrichment [9] was 2.16. The phosphorylation enrichment [10] was 0.782, the phosphorylation enrichment [11] was 0.709 and the phosphorylation enrichment [12] was 0.736. It also gave a phosphorylation enrichment [13] of 1.15, an SH2 binding enrichment [14] of 1.02 and an SH2 binding enrichment [15] of 0.73. The SH2 binding enrichment [16] was 0.775.
With LADKPYTFEYY [FXN_Y118_D122Y] the phosphorylation enrichment [1] was 1, the phosphorylation enrichment [2] was 0.782 and the phosphorylation enrichment [3] was 0.719. It also gave a phosphorylation enrichment [4] of 1.08, a phosphorylation enrichment [5] of 0.969 and a phosphorylation enrichment [6] of 0.833. For the same sequence, the phosphorylation enrichment [7] was 1.08, the phosphorylation enrichment [8] was 1.77 and the phosphorylation enrichment [9] was 0.707. It also gave a phosphorylation enrichment [10] of 1.25, a phosphorylation enrichment [11] of 0.52 and a phosphorylation enrichment [12] of 0.802. It also gave a phosphorylation enrichment [13] of 2.68, an SH2 binding enrichment [14] of 1.19 and an SH2 binding enrichment [15] of 0.899. It also gave an SH2 binding enrichment [16] of 1.28.

Reference: the supplement of paper PMC10065799, “High-throughput profiling of sequence recognition by tyrosine kinases and SH2 domains using bacterial peptide display” (eLife, 2023)
